This assay has as its system IL10 signaling pathway (STAT3). The experiment in a line: SEAP colorimetric assay in reporter cells with RISE10 constructs. It counts as cell-based. The procedure: FIG. 8 provides an example of CISC signaling through the IL10 signaling pathway. Cells were treated with IL10 or rapamycin at varying doses.
The signaling activity of RISE10 constructs (FIGS. 2 and 7) was examined. InvivoGen HEK-BLUE™ IL2 reporter cells, in which production of STAT3 (from IL10 signaling) leads to release of secreted embryonic alkaline phosphatase (SEAP), were used. The reporter cells were transfected with different levels of IL10, rapamycin and the RISE10 construct with a synthetic linker, (G4S)×3 (“CISC10 RaL”), or rapamycin and the RISE10 construct with IL10 hinge domains (“CISC10 RhL”). A colorimetric enzyme assay was performed to quantify the secreted embryonic alkaline phosphatase, and the results are shown in FIG. 8.

From US20250025502A1, “COMPOSITIONS AND METHODS FOR CONTROLLING CELL SIGNALING WITH CHIMERIC RECEPTORS” (GentiBio, Inc., priority 2021, published 2025) come the findings set out here.

B1: IL10: interleukin IL10 used as stimulus for comparison in the reporter assay (protein, UniProt P22301 19-178, looked up)
Interleukin-10: SPGQGTQSENSCTHFPGNLPNMLRDLRDAFSRVKTFFQMKDQLDNLLLKESLLEDFKGYLGCQALSEMIQFYLEEVMPQAENQDPDIKAHVNSLGENLKTLRLRLRRCHRFLPCENKSKAVEQVKNAFNKLQEKGIYKAMSEFDIFINYIEAYMTMKIRN
As to B1, the “IL10 dose giving similar peak plateau (SEAP)” value amounted to 10 ng/mL.
